Laboratory results from publication PMC5591645.
pKd: −log10 of the molar value.

Target: phosphorylated human eIF2α (amino acids 1–185) solubility-enhanced mutant (P-eIF2α) (human) (UniProt P05198)
Test: MST

| fold higher affinity than the isolated PP1^D95A [fold] | pKd | Substance |
| --- | --- | --- |
| 3 | – | R15B–PP1^D95A (from UniProt Q5SWA1;P62136) (complex) |
| 5.4 | – | R15A–PP1^D95A (from UniProt O75807;P62136) (complex) |
| – | 6.19 | PP1^D95A (human PP1α amino acids 7–330, D95A) (from UniProt P62136 7-330) (enzyme) |
